Source: publication PMC6769508, “Cooperative Binding of KaiB to the KaiC Hexamer Ensures Accurate Circadian Clock Oscillation in Cyanobacteria” (International Journal of Molecular Sciences, 2019)
Changes are numbered by the printed parent chain. Values joined by “and” are separate entries in the source; they are usually repeats but may differ in a detail not shown here. Equal values may be shown once.

B1: TeKaiCDD, T. elongatus KaiC mutant with Ser431 and Thr432 substituted by aspartate residues (natural protein, Thermosynechococcus elongatus, UniProt Q79V60 1-518, looked up)
chain: MTNLPEHQSSPTEQSSAEVKKIPTMIEGFDDISHGGLPQGRTTLVSGTSGTGKTLFAVQFLYNGITIFNEPGIFVTFEESPQDIIKNALSFGWNLQSLIDQGKLFILDASPDPDGQEVAGDFDLSALIERIQYAIRKYKATRVSIDSVTAVFQQYDAASVVRREIFRLAFRLKQLGVTTIMTTERVDEYGPVARFGVEEFVSDNVVILRNVLEGERRRRTVEILKLRGTTHMKGEYPFTINNGINIFPLGAMRLTQRSSNVRVSSGVKTLDEMCGGGFFKDSIILATGATGTGKTLLVSKFLETGCQQGERALLFAYEESRAQLSRNASSWGIDFEELERRGLLRIICAYPESAGLEDHLQIIKSEIADFKPSRVAIDSLSALARGVSNNAFRQFVIGVTGFAKQEEITGFFTNTTDQFMGSNSITESHIDDITDTILLLQYVEIRGEMSRAINVFKMRGSWHDKGIREYVITEKGAEIRDSFRNFEGIISGTPTRISVDEKTELARIAKGMQDLESE
notes: KaiC, Thermosynechococcus elongatus (strain BP-1), Ser431 and Thr432 substituted by aspartate (mimics the fully phosphorylated form); Seen as a homohexamer by native MS; also called TeKaiCDD homohexamer; source: E. coli, GST-tagged, purified after cleavage of the GST-tag
B2: TeKaiB_(10–108), N-terminal truncated mutant of T. elongatus KaiB (domain or fragment, Thermosynechococcus elongatus, UniProt Q79V61 10-108, looked up)
chain: LKLYVAGNTPNSVRALKTLNNILEKEFKGVYALKVIDVLKNPQLAEEDKILATPTLAKVLPPPVRRIIGDLSNREKVLIGLDLLYEEIGDQAEDDLGLE
notes: KaiB, Thermosynechococcus elongatus (strain BP-1), residues 10-108 (N-terminal segment deleted); source: E. coli, GST-tagged, purified after cleavage of the GST-tag
B3: TeKaiB_(10–108/DD), TeKaiB_(10–108) with Arg23 and Lys26 replaced with aspartate (domain or fragment, Thermosynechococcus elongatus, UniProt Q79V61 10-108, looked up)
chain: B2 chain with R14D, K17D
notes: KaiB, Thermosynechococcus elongatus (strain BP-1), residues 10-108, Arg23 and Lys26 substituted with aspartate; source: E. coli, GST-tagged, purified after cleavage of the GST-tag
B4: TeKaiB, wild-type T. elongatus KaiB (natural protein, Thermosynechococcus elongatus, UniProt Q79V61 1-108, looked up)
chain: MAPLRKTYVLKLYVAGNTPNSVRALKTLNNILEKEFKGVYALKVIDVLKNPQLAEEDKILATPTLAKVLPPPVRRIIGDLSNREKVLIGLDLLYEEIGDQAEDDLGLE
notes: KaiB, Thermosynechococcus elongatus (strain BP-1), wild type; source: E. coli, GST-tagged, purified after cleavage of the GST-tag
B5: TeKaiBDD, TeKaiB with the DD mutation (Arg23 and Lys26 to aspartate) (natural protein, Thermosynechococcus elongatus, UniProt Q79V61 1-108, looked up)
chain: B4 chain with R23D, K26D
notes: KaiB, Thermosynechococcus elongatus (strain BP-1), Arg23 and Lys26 substituted with aspartate; Named only in the SEC methods; source: E. coli, GST-tagged, purified after cleavage of the GST-tag

Legend:
[1] = target: the molecule itself; test: native MS; TeKaiCDD (20 µM) titrated with KaiB or SasA proteins, incubated at 37 °C for 6 h, buffer-exchanged into 150 mM ammonium acetate, pH 6.8; nanoflow ESI
[2] = target: B1; test: as above; conditions: both partners purified
[3] = target: the molecule itself; test: SEC; Superdex 200 increase; 20 mM Tris-HCl (pH 8.0), 150 mM NaCl, 5 mM MgCl2, 0.5 mM EDTA, 1 mM DTT; TeKaiB or TeKaiBDD in the absence of KaiC

Binder	stoichiometry N [2]	stoichiometry N [3]	further results
B1	–	–	stoichiometry N [1]: 6
B2	6 binder chains per KaiC hexamer	–	–
B3	1 binder chains per KaiC hexamer and 3 binder chains per KaiC hexamer and 2 binder chains per KaiC hexamer	–	–
B4	–	4	–
B5	–	4	–
